Data taken from PMC5490261, “The structural and functional characterization of human RecQ4 reveals insights into its helicase mechanism”.

Experiments:
Assay in all cases: fluorescence polarization; WT-like, low nM apparent Kd; 20 mM HEPES pH 8.0, 10 mM NaCl, 5% glycerol, 1 mM MgCl2, 0.5 mM TCEP, 0.5 nM Cy3-ssDNA; temperature not stated
Settings in all cases: protein: recombinant; tags: Trx-His6 removed by 3C protease; label: 5' Cy3
[1] = target: T1, RecQ4 427-1208 K843A/R844E/R848A (Homo sapiens, UniProt O94761 427-1208, K843A;R844E;R848A)
T1 sequence: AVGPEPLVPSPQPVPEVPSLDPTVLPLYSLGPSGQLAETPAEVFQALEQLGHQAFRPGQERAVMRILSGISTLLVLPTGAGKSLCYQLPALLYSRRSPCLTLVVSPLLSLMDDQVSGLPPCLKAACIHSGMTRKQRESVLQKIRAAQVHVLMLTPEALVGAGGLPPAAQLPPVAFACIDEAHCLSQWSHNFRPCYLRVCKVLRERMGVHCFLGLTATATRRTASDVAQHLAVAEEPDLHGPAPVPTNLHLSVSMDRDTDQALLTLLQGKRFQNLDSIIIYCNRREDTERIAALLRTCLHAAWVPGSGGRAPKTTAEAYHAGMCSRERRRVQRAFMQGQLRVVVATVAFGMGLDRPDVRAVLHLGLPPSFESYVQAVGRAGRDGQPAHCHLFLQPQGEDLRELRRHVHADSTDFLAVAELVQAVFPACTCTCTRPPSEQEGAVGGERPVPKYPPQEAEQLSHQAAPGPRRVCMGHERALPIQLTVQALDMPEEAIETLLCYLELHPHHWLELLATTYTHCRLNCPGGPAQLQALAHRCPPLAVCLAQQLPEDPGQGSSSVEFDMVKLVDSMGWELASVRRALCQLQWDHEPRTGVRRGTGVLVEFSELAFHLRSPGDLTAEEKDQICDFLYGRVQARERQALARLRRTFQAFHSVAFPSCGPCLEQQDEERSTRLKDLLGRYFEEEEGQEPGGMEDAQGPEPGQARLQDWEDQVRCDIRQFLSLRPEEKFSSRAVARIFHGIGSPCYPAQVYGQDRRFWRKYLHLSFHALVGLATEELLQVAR

[2] = target: T2, RecQ4 427-1208 K1048A (Homo sapiens, UniProt O94761 427-1208, K1048A)
T2 sequence: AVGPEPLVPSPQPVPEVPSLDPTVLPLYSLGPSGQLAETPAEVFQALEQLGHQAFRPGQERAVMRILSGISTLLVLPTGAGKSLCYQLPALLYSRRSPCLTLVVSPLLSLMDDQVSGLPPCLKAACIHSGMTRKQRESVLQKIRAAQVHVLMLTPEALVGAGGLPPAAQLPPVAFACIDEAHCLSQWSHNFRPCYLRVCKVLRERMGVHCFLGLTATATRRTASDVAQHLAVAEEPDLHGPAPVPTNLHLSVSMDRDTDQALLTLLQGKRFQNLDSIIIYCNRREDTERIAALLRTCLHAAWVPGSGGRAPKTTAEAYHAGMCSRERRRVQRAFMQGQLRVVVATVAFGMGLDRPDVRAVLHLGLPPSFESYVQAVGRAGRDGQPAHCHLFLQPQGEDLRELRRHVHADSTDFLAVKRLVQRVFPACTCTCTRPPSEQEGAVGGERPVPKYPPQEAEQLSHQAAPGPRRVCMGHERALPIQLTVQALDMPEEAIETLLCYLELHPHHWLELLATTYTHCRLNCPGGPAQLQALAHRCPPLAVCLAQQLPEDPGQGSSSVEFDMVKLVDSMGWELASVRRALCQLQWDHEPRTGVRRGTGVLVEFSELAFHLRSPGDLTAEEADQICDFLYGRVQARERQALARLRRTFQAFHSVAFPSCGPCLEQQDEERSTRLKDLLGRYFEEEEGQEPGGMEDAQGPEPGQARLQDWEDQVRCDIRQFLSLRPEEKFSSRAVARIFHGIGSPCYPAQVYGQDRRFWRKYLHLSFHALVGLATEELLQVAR

[3] = target: T3, RecQ4 427-1208 del944-1032 (Homo sapiens, UniProt O94761 427-943+=GG+1032-1208, internal_change)
T3 sequence: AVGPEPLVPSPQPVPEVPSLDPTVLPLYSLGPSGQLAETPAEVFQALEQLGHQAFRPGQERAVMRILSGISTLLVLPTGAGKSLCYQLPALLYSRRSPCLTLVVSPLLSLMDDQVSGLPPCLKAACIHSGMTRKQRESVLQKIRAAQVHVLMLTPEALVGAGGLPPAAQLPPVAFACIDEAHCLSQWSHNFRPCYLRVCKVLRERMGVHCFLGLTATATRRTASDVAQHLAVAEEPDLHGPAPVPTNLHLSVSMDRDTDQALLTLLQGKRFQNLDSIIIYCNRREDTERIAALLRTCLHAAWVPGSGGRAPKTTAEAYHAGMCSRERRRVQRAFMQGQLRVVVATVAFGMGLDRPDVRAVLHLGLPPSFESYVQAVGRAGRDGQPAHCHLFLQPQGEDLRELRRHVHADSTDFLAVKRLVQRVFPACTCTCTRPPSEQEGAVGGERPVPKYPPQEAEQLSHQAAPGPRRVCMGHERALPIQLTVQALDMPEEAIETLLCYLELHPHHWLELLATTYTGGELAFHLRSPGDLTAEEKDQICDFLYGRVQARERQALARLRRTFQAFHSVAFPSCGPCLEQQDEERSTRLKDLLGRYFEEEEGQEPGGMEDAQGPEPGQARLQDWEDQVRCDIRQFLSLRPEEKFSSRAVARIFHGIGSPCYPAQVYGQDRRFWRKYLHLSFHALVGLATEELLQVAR

Measured: binding result

CCATTCCACCCTCTATTTTTTTTTTTTTTT (ssDNA) [T3-Cy3]
binds: [1] | [2] | [3]
